# B1: VHH-1: llama anti-hCCR8 VHH, SEQ ID NO: 27; in Tables 11 and 13 tested as human IgG1 Fc fusion (protein)
# VHH: QVQLQESGGGLVQAGGSLRLSCVASGSTSSIRRIGWYRQAPGKQRELVARFSSGGGTNYADFVKGRFTISGDNAKNTMYLQMNSLKPEDTAVYYCSARRLLGTSRVDYWGQGTQVTVSSHHHHHH
# modifications: left off: small tags and cut ends
# Assays:
# [1] = target: T1, HuT-78 cells that naturally express human CCR8 (Homo sapiens, UniProt P51685); assay: Flow cytometry binding of yeast-display optimized VHH-Fc antibodies to HuT-78 cells; details: Table 13
# T1 construct: HuT-78 cells that naturally express human CCR8 were used as target cells; endogenous in cells; host or cells: HuT-78
# Source text: Top VHH sequences were chosen from the FACS sorted populations based on an analysis of improved binding performance relative to the parental sequences and evidence of sequence enrichment by NGS. Candidate VHH were then cloned as VHH-Fc fusions to the short hinge of the IgG1 Fc domain (SEQ ID NO: 34), expressed in HEK293 cells as described earlier and purified for binding evaluation. Bmax values are shown as normalized to VHH-1 or VHH-2 depending on the clone family. […] Mutations are referenced by position according to the IMGT definition.
# hCCR8 [2] = target: T2, hCCR8 (Homo sapiens, UniProt P51685); assay: Flow cytometry binding of purified VHHs to HEK293 cells expressing hCCR8; details: monovalent VHH, FIG. 1
# T2 construct: expressed in transfected cells
# Protocol: Recombinant cells expressing hCCR8 were resuspended to a final concentration of 1.0×10^6 cells/ml in FACS buffer. Surface expression of hCCR8 on transiently transfected HEK293 cells was confirmed by flow cytometry of HEK293 cells stained with PE anti-hCCR8 (Clone 433H, BD Biosciences, #566897) antibody. Dilutions of purified VHHs were incubated with cells for 60 min. Individual samples were distributed into 96-well v-bottom plates and incubated for one hour at 4° C. Bound VHH were then detected with an anti-VHH specific antibody (Goat anti-alpaca VHH, Jackson ImmunoResearch, #128-605-232). […] Binding was determined in parallel on HEK293 cells stably expressing the closely related receptor hCCR7 (SEQ ID NO: 41), as control for binding specificity.
# hCCR8 [3] = target: T2, hCCR8; assay: Flow cytometry binding of VHH-Fc fusion antibodies to hCCR8 on stably transfected HEK293 cells; details: Table 11
# Protocol: VHH-Fc fusion antibodies were evaluated for their ability to bind to hCCR8 on stably transfected HEK293 cells by means of flow cytometry. Cells were incubated with different concentrations of the bivalent VHH-Fc fusions for 60 minutes at 4° C., followed by two washes with FACS buffer, followed by 30 minutes incubation at 4° C. with the Zenon R-Phycoerythrin Anti-human IgG (ThermoFisher Scientific, #Z-25455), and two additional washing steps. Data were plotted and fit using GraphPad Prism software. EC50 and Bmax values individual antibodies were calculated from the resulting dose-response curves. Bivalent VHH-Fc fusions (Seq ID NOs: 31, 33, and 87-103) of 19 different VHH domains (SEQ ID NOs: 27, 28, and 70-86) were tested for cell binding and results are shown in Table 7. […]
# VHH-Fc fusion DNA constructs were then generated comprising encoding humanized VHH sequences (SEQ ID NOs: 106-111) fused in frame to the human IgG1 (SEQ ID NO: 34) directly to the short hinge sequence in the pFuse expression vector, and were expressed, purified and analyzed for binding to HEK293 cells expressing human CCR8 as in Example 5. Binding curves for VHH-Fc antibodies comprised of parental VHH-1 and the humanized VHH derivatives VHH-1.2-Fc and VHH-1.3-Fc are shown in FIG. 9A. Binding curves for VHH-Fc antibodies comprised of parental VHH-2 and the humanized VHH derivatives VHH-2-Fc, VHH-2.2-Fc and VHH-2.3-Fc, are shown in FIG. 9B. Cell binding EC50 values, normalized Bmax (relative to respective parental clone) data and humanizing mutations are shown in Table 10 below.
# Approaches such as in vitro affinity maturation and rational mutagenesis can be performed to regain binding affinity and/or stability lost through humanization. In vitro affinity maturation generally involves building and amino acid substitution library where amino acid positions are varied across the CDRs and/or framework at a defined set of positions using sets of amino acids chosen to introduce new chemical diversity. The paratope residues within the CDR regions are of course key to antigen binding and care must be taken not to disrupt important structures while attempting to evolve improve antibody behavior. One approach to identify positions that are important to the maintenance of binding properties is to perform paratope mapping using single scanning alanine substitutions across antibody CDR regions. In this approach, residues that are critical to the maintenance of antibody binding to the antigen can be identified and at the same time permissive sites can be identified where it may be possible to make substitutions of other amino acids desirable for subsequent affinity maturation library construction. Site directed mutagenesis was used to make single alanine substitutions at each residue in the CDRs of VHH-1 (SEQ ID NO: 27) and VHH-2 (SEQ ID NO: 28). Changes in VHH-1 CDR amino acids to alanine are indicated in Table 11 (SEQ ID NOs: 112-137) and for VHH-2 CDRs (SEQ ID NO: 138-162) in Table 12. Mutation positions and residue changes to alanine with respect to the in the parental VHH sequences are referenced by their IMGT position. VHH domains containing the indicated modified CDR-1, CDR-2 or CDR-3 domains were used to construct Fc fusions by direct grafting to the short hinge of the human Fc domain (SEQ ID NO: 34). VHH-Fc constructs were expressed, purified and analyzed for binding to HEK293 cells expressing hCCR8 and the results are reported in Table 11 and Table 12. EC50 values are reported for each Fc fusion antibody containing a modified CDR, along with its respective Bmax value normalized to the to the matched wild type VHH-1-Fc or VHH-2-Fc fusion antibody.
# T2 sequence (P51685 whole entry): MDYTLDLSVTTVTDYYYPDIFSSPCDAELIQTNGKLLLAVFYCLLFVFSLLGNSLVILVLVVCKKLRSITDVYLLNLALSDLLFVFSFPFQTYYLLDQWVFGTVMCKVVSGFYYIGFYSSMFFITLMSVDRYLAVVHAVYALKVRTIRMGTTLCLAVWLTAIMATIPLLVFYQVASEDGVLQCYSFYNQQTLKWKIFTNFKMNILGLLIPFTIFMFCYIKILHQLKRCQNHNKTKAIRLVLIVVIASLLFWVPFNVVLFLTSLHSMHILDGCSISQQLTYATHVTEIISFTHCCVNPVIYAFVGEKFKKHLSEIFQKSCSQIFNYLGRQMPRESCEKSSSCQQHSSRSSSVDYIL
# T1 sequence (P51685 whole entry): as above
molecule,measurement,setting,value
B1,EC50,"[1]; clones tested as VHH-Fc fusions (human IgG1 Fc), HuT-78 cells",2.56 nM
same,Normalized Bmax (%),[1]; normalized to VHH-1 or VHH-2 depending on clone family,100.0%
same,binding specificity hCCR8 vs human CCR7,hCCR8 [2],specific binding to hCCR8 overexpressed in HEK293 cells and not to human CCR7
same,EC50,"hCCR8 [3]; VHH-1 CDR alanine mutants as human Fc fusions, HEK293 hCCR8",1.73 nM
same,% Bmax,hCCR8 [3]; normalized to wild type VHH-1-Fc,100%
